# Laboratory results published in US8071348B2, “Protein tyrosine phosphatase substrate-trapping double mutant and uses thereof” (Albert Einstein College of Medicine of Yeshiva University, priority 2002, dated 2011).
# [ ]: non-standard residue; d: D form. F2Pmp = N[C@@H](Cc1ccc(C(F)(F)P(=O)(O)O)cc1)C(=O)O
# T1: Ac-Asp-Ala-Asp-Glu-F2Pmp-Leu-NH2
# T1 construct: Synthetic hexapeptide printed in three-letter code; also called F2Pmp-containing peptide; non-hydrolyzable substrate analog
# T1 peptide: Ac-DADE[F2Pmp]L-NH2
# B1: PTP1B/D181A/Q262A, catalytic domain (residues 1 to 321) (enzyme, human, UniProt P18031 1-321, looked up)
# chain: MEMEKEFEQIDKSGSWAAIYQDIRHEASDFPCRVAKLPKNKNRNRYRDVSPFDHSRIKLHQEDNDYINASLIKMEEAQRSYILTQGPLPNTCGHFWEMVWEQKSRGVVMLNRVMEKGSLKCAQYWPQKEEKEMIFEDTNLKLTLISEDIKSYYTVRQLELENLTTQETREILHFHYTTWPAFGVPESPASFLNFLFKVRESGSLSPEHGPVVVHCSAGIGRSGTFCLADTCLLLMDKRKDPSSVDIKKVLLEMRKFRMGLIATADQLRFSYLAVIEGAKFIMGDSSVQDQWKELSHEDLEPPPEHIPPPPRPPKRILEPHN
# notes: range 1-321; Used in vitro (ITC, kinetics); also called PTP1B substrate-trapping double mutant
# Key:
# EGF receptor = test: Substrate protection: EGF receptor tyrosine phosphorylation in COS1 cells expressing PTP1B forms (anti-pTyr Western blot); type: cell-based, Monkey; settings: COS1 cell lysates, anti-pTyr immunoblot (FIG. 4)
# [1] = target: T1, Ac-Asp-Ala-Asp-Glu-F2Pmp-Leu-NH2; test: ITC, 25 C, pH 7.0
# Description: All isothermal titration calorimetry experiments were performed using an MCS Isothermal Titration Calorimetry System from Microcal Inc. (Northampton, Mass.). Experiments at pH 7.0 were conducted at 25° C., in 50 mM 3,3-dimethylglutarate buffer containing 1 mM DTT. The ionic strength of the buffer was adjusted to 0.15 M by addition of NaCl. Protein concentration in the calorimeter cell was 27-85 µM, while the ligand concentration in the syringe was 0.37-1 mM.
# The PTP1B samples used in the isothermal titration calorimetry experiments were dialyzed completely against buffer. High-concentration stock solutions were prepared for ligands with distilled water, and adjusted to pH 7.0. […] Protein dilution during titration was determined by titration of buffer into the protein solution. […] The heat of ligand dilution was corrected by subtracting the average heat of injection after saturation.
# A typical titration curve and binding isotherm for the binding of D181A/Q262A to Ac-Asp-Ala-Asp-Glu-F_2Pmp-Leu-NH_2 is shown in FIG. 3. From curve-fitting of the binding isotherms, the stoichiometry for the binding of the peptide to D181A/Q262A was determined to be 1:1.
molecule,measurement,setting,value
B1,level of pTyr in the EGF receptor / enhancement of EGF receptor phosphorylation,EGF receptor,most pronounced
same,"protection of phosphorylated EGF receptors, fold better than D181A",EGF receptor,more than 3 fold
same,TΔS,[1],27.6 kJ/mol
same,ΔG,[1],-46.4 kJ/mol
same,ΔH,[1],-18.8 kJ/mol
